The nature of the data set: total protein half-life in vivo (active degradation + dilution); higher = more stable protein.
[1] abbreviates: E. coli NCM3722 delta-clpP delta-lon delta-hslV, growth: N-lim chemostat, doubling time 6 h.
The mark [2] stands for this setting: E. coli NCM3722 delta-clpP, growth: N-lim chemostat, doubling time 6 h.
Setting [3] is: E. coli NCM3722 delta-hslV, growth: N-lim chemostat, doubling time 6 h.
[4] abbreviates: E. coli NCM3722 delta-lon, growth: N-lim chemostat, doubling time 6 h.
The mark [5] stands for this setting: E. coli NCM3722 delta-smpB, growth: N-lim chemostat, doubling time 6 h.
Setting [6] is: wild type E. coli NCM3722, growth: C-lim chemostat, doubling time 12 h.
Setting [7] is: wild type E. coli NCM3722, growth: N-lim chemostat, doubling time 6 h.
Setting [8] is: wild type E. coli NCM3722, growth: N-lim chemostat, doubling time 12 h.
Where [9] appears, read: wild type E. coli NCM3722, growth: P-lim chemostat, doubling time 6 h.
Setting [10] is: wild type E. coli NCM3722, growth: C-lim chemostat, doubling time 3 h.
Setting [11] is: wild type E. coli NCM3722, growth: C-lim chemostat, doubling time 6 h.
The mark [12] stands for this setting: wild type E. coli NCM3722, growth: P-lim chemostat, doubling time 12 h.

± gives the standard deviation of the averaged measurements.

As to “MALKATIYKATVNVADLDRNQFLDASLTLARHPSETQERMMLRLLAWLKYADERLQFTRGLCADDEPEAWLRNDHLGIDLWIELGLPDERRIKKACTQAAEVALFTYNSRAAQIWWQQNQSKCVQFANLSVWYLDDEQLAKVSAFADRTMTLQATIQDGVIWLSDDKNNLEVNLTAWQQPS [P0AA97]”, the “total protein half-life in vivo” value by setting is: under setting [1], 5.6431 ± 0.0016 h; under setting [2], 3.9 ± 0.19 h; under setting [3], 4.82 ± 0.38 h; under setting [4], 5.25 ± 0.72 h; under setting [5], 3.354 ± 0.009 h; under setting [6], 8.84 ± 1.6 h. The “total protein half-life in vivo” value under setting [7] turned out to be 4.38 h, the “total protein half-life in vivo” value under setting [8] turned out to be 7.28 ± 0.26 h and the “total protein half-life in vivo” value under setting [9] was found to be 4.93 ± 0.28 h.

Turning to “MVKSTPCITIDFMNMSQLTERTFTPSESLSSLSLFLSLARGQCRPGKFWHRRSFRQKFLLRSLIMPRLSVEWMNELSHWPNLNVLLTRQPRLPVRLHRPYLAANLSRKQLLEALRYHYALLRECMSAEEFSLYLNTPGLQLAKLEGKNGEQFTLELTMMISMDKEGDSTILFRNSEGIPLAEITFTLCEYQGKRTMFIGGLQGAKWEIPHQEIQNATKACHGLFPKRLVMEAACLFAQRLQVEQIIAVSNETHIYRSLRYRDKEGKIHADYNAFWESVGGVCDAERHYRLPAQIARKEIAEIASKKRAEYRRRYEMLDAIQPQMATMFRG”, the “total protein half-life in vivo” value is, setting by setting: under setting [1], 3.06 ± 0.041 h; under setting [3], 0.723 h; under setting [4], 1.38 ± 0.35 h; under setting [5], 0.646 ± 0.039 h; under setting [10], 0.953 ± 0.067 h; under setting [11], 0.7307 ± 0.0013 h. For the same sequence, the “total protein half-life in vivo” value is, setting by setting: under setting [6], 1.31 h; under setting [7], 1.16 ± 0.38 h; under setting [8], 1.2 ± 0.25 h; under setting [12], 2.33 h.

Regarding “MKELVVVAIGGNSIIKDNASQSIEHQAEAVKAVADTVLEMLASDYDIVLTHGNGPQVGLDLRRAEIAHKREGLPLTPLANCVADTQGGIGYLIQQALNNRLARHGEKKAVTVVTQVEVDKNDPGFAHPTKPIGAFFSDSQRDELQKANPDWCFVEDAGRGYRRVVASPEPKRIVEAPAIKALIQQGFVVIGAGGGGIPVVRTDAGDYQSVDAVIDKDLSTALLAREIHADILVITTGVEKVCIHFGKPQQQALDRVDIATMTRYMQEGHFPPGSMLPKIIASLTFLEQGGKEVIITTPECLPAALRGETGTHIIKT”, the “total protein half-life in vivo” value is, setting by setting: under setting [10], 2.78 ± 1.3 h; under setting [11], 5.03 h.

“MKQALRVAFGFLILWASVLHAEVRIVIDSGVDSGRPIGVVPFQWAGPGAAPEDIGGIVAADLRNSGKFNPLDRARLPQQPGSAQEVQPAAWSALGIDAVVVGQVTPNPDGSYNVAYQLVDTGGAPGTVLAQNSYKVNKQWLRYAGHTASDEVFEKLTGIKGAFRTRIAYVVQTNGGQFPYELRVSDYDGYNQFVVHRSPQPLMSPAWSPDGSKLAYVTFESGRSALVIQTLANGAVRQVASFPRHNGAPAFSPDGSKLAFALSKTGSLNLYVMDLASGQIRQVTDGRSNNTEPTWFPDSQNLAFTSDQAGRPQVYKVNINGGAPQRITWEGSQNQDADVSSDGKFMVMVSSNGGQQHIAKQDLATGGVQVLSSTFLDETPSLAPNGTMVIYSSSQGMGSVLNLVSTDGRFKARLPATDGQVKFPAWSPYL [P0A855]”: the “total protein half-life in vivo” value under setting [1] turned out to be 5.6 ± 0.21 h; the “total protein half-life in vivo” value under setting [2] turned out to be 6.39 ± 0.61 h; the “total protein half-life in vivo” value under setting [4] stood at 6.28 ± 0.33 h; the “total protein half-life in vivo” value under setting [5] came to 6.07 ± 0.73 h; the “total protein half-life in vivo” value under setting [10] is 3.14 ± 0.04 h; the “total protein half-life in vivo” value under setting [11] was 6.59 ± 0.57 h. Besides, the “total protein half-life in vivo” value amounted to 11.3 ± 0.41 h under setting [6]; 6.31 ± 0.17 h under setting [7]; 13.8 ± 1.4 h under setting [8]; 5.89 ± 0.3 h under setting [9]; 13.05 ± 0.13 h under setting [12].

“MRLEVFCEDRLGLTRELLDLLVLRGIDLRGIEIDPIGRIYLNFAELEFESFSSLMAEIRRIAGVTDVRTVPWMPSEREHLALSALLEALPEPVLSVDMKSKVDMANPASCQLFGQKLDRLRNHTAAQLINGFNFLRWLESEPQDSHNEHVVINGQNFLMEITPVYLQDENDQHVLTGAVVMLRSTIRMGRQLQNVAAQDVSAFSQIVAVSPKMKHVVEQAQKLAMLSAPLLITGDTGTGKDLFAYACHQASPRAGKPYLALNCASIPEDAVESELFGHAPEGKKGFFEQANGGSVLLDEIGEMSPRMQAKLLRFLNDGTFRRVGEDHEVHVDVRVICATQKNLVELVQKGMFREDLYYRLNVLTLNLPPLRDCPQDIMPLTELFVARFADEQGVPRPKLAADLNTVLTRYAWPGNVRQLKNAIYRALTQLDGYELRPQDILLPDYDAATVAVGEDAMEGSLDEITSRFERSVLTQLYRNYPSTRKLAKRLGVSHTAIANKLREYGLSQKKNEE”: the “total protein half-life in vivo” value stood at 6.71 ± 0.79 h under setting [1]; 4.83 ± 0.089 h under setting [2]; 4.73 ± 0.23 h under setting [3]; 6.13 ± 0.71 h under setting [4]; 4.6 ± 0.14 h under setting [5]; 2.69 ± 0.14 h under setting [10]. In addition, the “total protein half-life in vivo” value by setting is: under setting [11], 5.844 ± 0.052 h; under setting [6], 8.21 ± 0.57 h; under setting [7], 4.51 ± 0.34 h; under setting [8], 8.243 ± 0.066 h; under setting [9], 4.84 ± 0.092 h; under setting [12], 9.34 ± 0.13 h.

For “MKFVDEASILVVAGDGGNGCVSFRREKYIPKGGPDGGDGGDGGDVWMEADENLNTLIDYRFEKSFRAERGQNGASRDCTGKRGKDVTIKVPVGTRVIDQGTGETMGDMTKHGQRLLVAKGGWHGLGNTRFKSSVNRTPRQKTNGTPGDKRELLLELMLLADVGMLGMPNAGKSTFIRAVSAAKPKVADYPFTTLVPSLGVVRMDNEKSFVVADIPGLIEGAAEGAGLGIRFLKHLERCRVLLHLIDIDPIDGTDPVENARIIISELEKYSQDLATKPRWLVFNKIDLLDKVEAEEKAKAIAEALGWEDKYYLISAASGLGVKDLCWDVMTFIIENPVVQAEEAKQPEKVEFMWDDYHRQQLEEIAEEDDEDWDDDWDEDDEEGVEFIYKR”, the “total protein half-life in vivo” value under setting [1] was found to be 5.72 ± 1.1 h; the “total protein half-life in vivo” value under setting [2] turned out to be 4.17 ± 0.15 h; the “total protein half-life in vivo” value under setting [3] stood at 2.39 ± 0.18 h; the “total protein half-life in vivo” value under setting [4] was found to be 2.44 ± 0.097 h; the “total protein half-life in vivo” value under setting [5] is 2.185 ± 0.021 h; the “total protein half-life in vivo” value under setting [10] is 2.27 ± 0.1 h. For the same sequence, the “total protein half-life in vivo” value by setting is: under setting [11], 3.58 ± 0.14 h; under setting [6], 5.35 ± 0.73 h; under setting [7], 2.39 ± 0.11 h; under setting [8], 2.82 ± 0.035 h; under setting [9], 3.04 ± 0.22 h; under setting [12], 5.89 ± 0.39 h.

Consider “MERFLENAMYASRWLLAPVYFGLSLALVALALKFFQEIIHVLPNIFSMAESDLILVLLSLVDMTLVGGLLVMVMFSGYENFVSQLDISENKEKLNWLGKMDATSLKNKVAASIVAISSIHLLRVFMDAKNVPDNKLMWYVIIHLTFVLSAFVMGYLDRLTRHNH”, for which the “total protein half-life in vivo” value runs as follows: under setting [4], 6.103 ± 0.048 h; under setting [5], 5.64 ± 0.26 h; under setting [10], 2.92 ± 0.05 h; under setting [6], 11.8 ± 1.8 h; under setting [7], 4.99 ± 0.67 h; under setting [9], 5.88 h. Moreover, under setting [12], the “total protein half-life in vivo” value is 10.6 h.

Turning to “MARLFTLSESKYYLMALDAGTGSIRAVIFDLEGNQIAVGQAEWRHLAVPDVPGSMEFDLNKNWQLACECMRQALHNAGIAPEYIAAVSACSMREGIVLYNNEGAPIWACANVDARAAREVSELKELHNNTFENEVYRATGQTLALSAIPRLLWLAHHRSDIYRQASTITMISDWLAYMLSGELAVDPSNAGTTGLLDLTTRDWKPALLDMAGLRADILSPVKETGTLLGVVSSQAAELCGLKAGTPVVVGGGDVQLGCLGLGVVRPAQTAVLGGTFWQQVVNLAAPVTDPEMNVRVNPHVIPGMVQAESISFFTGLTMRWFRDAFCAEEKLIAERLGIDTYTLLEEMASRVPPGSWGVMPIFSDRMRFKTWYHAAPSFINLSIDPDKCNKATLFRALEENAAIVSACNLQQIADFSNIHPSSLVFAGGGSKGKLWSQILADVSGLPVNIPVVKEATALGCAIAAGVGAGIFSSMAETGERLVRWERTHTPDPEKHELYQDSRDKWQAVYQDQLGLVDHGLTTSLWKAPGL”, the “total protein half-life in vivo” value runs as follows: under setting [1], 4.78 ± 0.065 h; under setting [2], 1.36 h; under setting [4], 2.49 h; under setting [5], 1.27 h; under setting [10], 1.55 ± 0.35 h; under setting [11], 2.83 ± 0.42 h. The “total protein half-life in vivo” value under setting [6] was found to be 2.92 ± 0.031 h.

Values taken from the supplement of paper PMC11246515.
